Reference: paper PMC7308587

How the values were obtained:
[1] = target: PpPIIa, recombinant mature protein (without the chloroplast transit peptide) (Pinus pinaster (maritime pine)); assay: SEC; ENrich SEC 650 10 x 300 column (FPLC), 250 uL of protein at 0.6 ug/uL in 25 mM Tris-HCl pH 7.5, 150 mM NaCl, 10% glycerol, room temperature, 0.75 mL/min; calibrated with protein standards; fractions checked by western blot
[2] = target: PpNAGK, recombinant mature N-acetylglutamate kinase (301 residues without cTP) fused to a His-tag (Pinus pinaster (maritime pine))
[3] = target: PpPIIb, recombinant mature protein (without the chloroplast transit peptide) (Pinus pinaster (maritime pine)); assay: SEC; ENrich SEC 650 10 x 300 column (FPLC), 250 uL of protein at 0.6 ug/uL in 25 mM Tris-HCl pH 7.5, 150 mM NaCl, 10% glycerol, room temperature, 0.75 mL/min; calibrated with protein standards; fractions checked by western blot

Substance	stoichiometry N [1]	PpNAGK enzyme activity (N-acetylglutamylhydroxamate assay) with increasing amounts of PpPIIa mixed with 0.65 ug PpNAGK [2] [fold]	stoichiometry N [3]	PpNAGK enzyme activity (N-acetylglutamylhydroxamate assay) with increasing amounts of PpPIIb mixed with 0.65 ug PpNAGK [2] [fold]
PpPIIa, recombinant mature protein (without the chloroplast transit peptide) (natural protein)	3	5		
PpPIIb, recombinant mature protein (without the chloroplast transit peptide) (natural protein)			3	5
